Results taken from paper doi:10.1101/2022.03.25.485794 (bioRxiv, 2022).
Where two headings read alike, the source gives them in different places.

How the values were obtained:
Test in all cases: cryo-EM structure
[1] = biological target: T1, E. coli [Cys541;Pro607]-σ^70 (E. coli, UniProt P00579 1-613, R541C | L607P)
E. coli NusA = E. coli NusA (E. coli, UniProt P0AFF6 1-495)
[2] = biological target: T1, E. coli [Cys541;Pro607]-σ^70; remark: listed apart in the source

Row | Binder | binding result [1] | binding result (E. coli NusA) | binding result [2]
1 | wild-type Qλ (Q protein of bacteriophage λ) (natural protein, UniProt P03047 1-207, looked up) MRLESVAKFHSPKSPMMSDSPRATASDSLSGTDVMAAMGMAQSQAGFGMAAFCGKHELSQNDKQKAINYLMQFAHKVSGKYRGVAKLEGNTKAKVLQVLATFAYADYCRSAATPGARCRDCHGTGRAVDIAKTELWGRVVEKECGRCKGVGYSRMPASAAYRAVTMLIPNLTQPTWSRTVKPLYDALVVQCHKEESIADNILNAVTR | binds | binds | –
2 | Qλ^M1S (Q protein of bacteriophage λ, M1S derivative) (natural protein, UniProt P03047 1-207, looked up) SRLESVAKFHSPKSPMMSDSPRATASDSLSGTDVMAAMGMAQSQAGFGMAAFCGKHELSQNDKQKAINYLMQFAHKVSGKYRGVAKLEGNTKAKVLQVLATFAYADYCRSAATPGARCRDCHGTGRAVDIAKTELWGRVVEKECGRCKGVGYSRMPASAAYRAVTMLIPNLTQPTWSRTVKPLYDALVVQCHKEESIADNILNAVTR | – | – | binds
